According to the DeepSol protein solubility set:

Assay: soluble on expression in E. coli; label from the status in PepcDB or PDB records

| Sequence | soluble on expression in E. coli |
| --- | --- |
| MKVRNVIIGFMVASLTGCSMGHRDPVEIKQTLDKSINENGGLLLADLPASVQADLMPELNTPHVEVEEPVKRFRVRANGVGAKAFFTSLVKGTEYSVVIHPQVSGRITMNLSDVTMDDVLSSVEDLYGYDIVKAGKVLQVYPATIRTETIPVDYLQLTRKGRSLTTITTGSITNSDNNSSNNNNSSSKSNNNSSSSSSSATGGTEIETTSESDFWKELETAISVMIGNGADRSVVVSPQASVVTITASPDELRKVKQFLGTSHKRLQRQVILEAKLLEVTLSDGYQQGINWSNLTASLGGTDVVFGQTSGLVQGALPGMDTIGTLLGGQTNITVSDGNFQAVLSFMDTQGDLNVLSSPRVTAANNQKAVIKVGRDEYYVTEVSSVTGSGDNSNASPEVTLTPFFSGISLDVTPQIDDKGNVMLHVHPSVIDVENEVKEIDLGDVGGVLKLPLAKSSIRESDSVIRAKSGDVVVIGGLMKSQTVDQVSKVPLLGDVPALGHLFRNVSQLTQKTELVILLKPTVVGVDTWQEELERSRDLLQEWFPDELEHHHHHH | soluble |
| MAHHHHHHMPHHAQDLRHDFTSGILNCHESCAVCLDACLCMYCTASAHHNFLMNDTEGLYLPVCWGLFCVDVGLSAVSSYLPSSLHFHTYFMRSAIRRRYNLHSA | soluble |
| MKNIKKNQVMNLGPNSKLLKEYKSQLIELNIEQFEAGIGLILGDAYIRSRDEGKTYCMQFEWKNKAYMDHVCLLYDQWVLSPPHKKERVNHLGNLVITWGAQTFKHQAFNKLANLFIVNNKKTIPNNLVENYLTPMSLAYWFMDDGGKWDYNKNSTNKSIVLNTQSFTFEEVEYLVKGLRNKFQLNCYVKINKNKPIIYIDSMSYLIFYNLIKPYLIPQMMYKLPNTISSETFLK | soluble |
| SQFDILCKTPPKVLVRQFVERFERPSGEKIASCAAELTYLCWMITHNGTAIKRATFMSYNTIISNSLSFDIVNKSLQFKYKTQKATILEASLKKLIPAWEFTIIPYNGQKHQSDITDIVSSLQLQFESSEEADKGNSHSKKMLKALLSEGESIWEITEKILNSFEYTSRFTKTKTLYQFLFLATFINCGRFSDIKNVDPKSFKLVQNKYLGVIIQCLVTETKTSVSRHIYFFSARGRIDPLVYLDEFLRNSEPVLKRVNRTGNSSSNKQEYQLLKDNLVRSYNKALKKNAPYPIFAIKNGPKSHIGRHLMTSFLSMKGLTELTNVVGNFSDKRASAVARTTYTHQITAIPDHYFALVSRYYAYDPISKEMIALKDETNPIEEWQHIEQLKGSAEGSIRYPAWNGIISQEVLDYLSSYINRRIGHHHHHH | soluble |
| MSLDEKLRTSGVQVIGDIAWGTHFCQFYRTQEELVNVVCPYLKAGLEGNELCIWALPRDFETKKEAEGPLRRTIPKLDIYLEKGQMEIISYKDRYAEKEIPDSKKALENLIKKADYALLNGYSGLRLVQDTSWLKNDWKNLTGYEEELDIAIENRRITALCTYSSGKFDTDETIYAALSHRFVLVKKEGNWEKVENPRLKKAEERVIQPSEEVETKTEEENENLKKLLEERTVELTEAYKSLKVNEKQFLQIRKMTHIGNWKWDILTGELHWSDEVYRIFGRDPERFKATCDAFLGSVHPDDREYLINSIKKDFDEQIRNIDYRIVLPDGEERTVRTRVEITFDEEGHHHHHH | not soluble |
| MVRIDAKGLHYKKLNDLIWEAVENGEEEIVLDNVCGQRYIGAGIRKKVKIEINGVPGNDLGVFMDGPEIIVNGNAQDGVGNTMNAGKIVVHGHAGDIIGYAMRGGHIYIKRNAGYRVGIHMKAYKENYPVVVIGGFARDFLGEYMAGGLLIVLGLEKDEDGNIAGNYVGTGMHGGEIFLRGTVEEHKLGKEVKIFQPTEEDINRIKPYVEEFCRLFDYDSEEILNEEFIILKPYTHRPYGRLYAY | not soluble |
| GPGSMDFVPTVAVIRANPVEGVRYAYTSTVSDNRYDSFVEDAVMQYSGNVNEADGSDRASPRFSGRSVVNLQRAILQCGDIRVSDKQDAEPVGVWRCLAGAILAACCFLRSYSTCPSESFDECGAEVCDAFVPAGVAMIIFSGVCDTRPLSFSEECPFSAAVTAATRLRTAVHVFGPAVVSSALGLRLQALANTTGGIWAPQFALSHVGYLMELAVRRNGQREMDSATNSRRQRELLVERYVVPPACLPQDPAQTGVASGENVSYLAWLCSACLATLVRHPHEEVGAIRMCPYCAASK | not soluble |
| MKSIYIILVNYNNFQDTIECVKSLRKIKNYHNYKVIIVDNDSKNDSVSKIKSFLQDCLLIESKKNLGFAGGNNLGIKYAMKHNADYVLLLNNDTVVENDFLDKLLEVHENYGNVGIVGGKIYYYYDKNRIWYAGGKINKFTGKTKHIGVNEIDEGQYNNISITGYVTGCMMLISKGAIEKCGVMDEKYFLYYEETDWNVRIKNAGFKIMYTPLSKIYHKVSSTTGKSDLIMSYYYDRNRYYFVFKNFNWVCKLSVTLYILVRLYAKLFKAIAINDVKRKHLIEYTIISIKNNIMGEIRV | not soluble |
| GTPLPENENMSLYQSRVTVGELEMLASRFVGRTRVRNAFAQYWSQQRETLLPNQQASSALIRHTERVLAGVFGASSAKLVLTSALQGRKMQLEEVATIVDEASELYDFSRGLLQGAIEHIG | not soluble |
| MGHHHHHHSHMTPGVVHASPPQSQRVPRQAPCEWAIRNIGQKPKEPNCHNCGTHIGLRSKTLRGTPNYLPIRQDTHPPSVIFCLAGVGVPGLPV | not soluble |
| TAWILMVPIALLYVKNWEEECCKQKKEEFREQFRESIQTLSAILKVGYSVENAIRETWKEICPIYKKKTRIIKEYETMVHQLDLNMTAEEVMKQFADRVKEEDVENFVTVFGAAKRLGGDSIAIIRHAADAIGEKMEVEREIQVMLTSKKLEFKIMCVIPFVIILYMRSAFPEFM | not soluble |
| MGSSHHHHHHSSGLEVLFQGPHMETAIWIKNSKLPAVLVAAGAFDAAVQALSKQVGVVKLEPLKKYFTNIYEGCRTYIPSTPCELPAQLGYVRAYDDTVSEDQILPYVPGLDVVNEKMNEGYKNFKLNKPDIAIECFREAIYRITLLMVDDAEDEKLAHKILETAREYILGLSIELERRSLKEGNTVRMLELAAYFTKAKLSPIHRTNALQVAMSQHFKHKNFLQASYFAGEFLKIISSGPRAEQARKIKNKADSMASDAIPIDFDPYAKFDICAATYKPIYEDTPSVSDPLTGSKYVITEKDKIDRIAMISKIGAPASGLRIRV | soluble |
| MGSQKRLVQRVERKLEQTVGDAFARIFGGSIVPQEVEALLRREAADGIQSLQGNRLLAPNEYIITLGVHDFEKLGADPELKSTGFARDLADYIQEQGWQTYGDVVVRFEQSSNLHTGQFRARGTVNPDVETHPPVIDCARPQSNHAFGAEPGVAPMSDNSSYRGGQGQGRPDEYYDDRYARPQEDPRGGPDPQGGSDPRGGYPPETGGYPPQPGYPRPRHPDQGDYPEQIGYPDQGGYPEQRGYPEQRGYPDQRGYQDQGRGYPDQGQGGYPPPYEQRPPVSPGPAAGYGAPGYDQGYRQSGGYGPSPGGGQPGYGGYGEYGRGPARHEEGSYVPSGPPGPPEQRPAYPDQGGYDQGYQQGATTYGRQDYGGGADYTRYTESPRVPGYAPQGGGYAEPAGRDYDYGQSGAPDYGQPAPGGYSGYGQGGYGSAGTSVTLQLDDGSGRTYQLREGSNIIGRGQDAQFRLPDTGVSRRHLEIRWDGQVALLADLNSTNGTTVNNAPVQEWQLADGDVIRLGHSEIIVRMH | soluble |
| MPLTDPAKLQIVQQRVFLKKVCRKCGALNPIRATKCRRCHSTNLRLKKKELPTKKG | soluble |
| MSNMEPPPPMFPRSRIYHSYYSEEKTFSAPSANSQQGTQLPSKVYNKGLKDNDIEGLLSSLSIDELEDLNNDFDPDNSMLPPSQRCRDQTDKEPTGPYKRDNLLKFLEDKAKTEKDWEDVCPYTPGQKRGKVYDSDSGRNSEEPENGKMEMPIEIDLDDDEEELECALVTAPEKDLVDLAGILGMHNVLNQPQYYNALKGKTQDESTGTTFNGIMQSYVPRIVPDEPDNDTDVESCINRLREDDTDLKEVNINNMKRVSKERIRSLIEAACNSKHIEKFSLANTAISDSEARGLIELIETSPSLRVLNVESNFLTPELLARLLRSTLVTQSIVEFKADNQRQSVLGNQVEMDMMMAIEENESLLRVGISFASMEARHRVSEALERNYERVRLRRLGKDPNV | soluble |
| MSLKITKLEKKKRLYLMELDNGDKCYITEDTIVRFMLSRDKVISEEELKEIQDFAQFSYGKNLALYHLSFKARTEKEVREYLKKYDIDKNIVSQVIANLKEDKWINDGQYAYAIINTNQLSGDKGPYVLTQKLAQKGISKSTIEENLKEFDFSEVAQRVANKLLKKYEGKLPARALQDKIIQNLTNKGFSYSDAKIAFDDLDSQVDQETTQELIFKELDKQYTKYARKYEGYELKQRLTQVLARKGYDFSDIASALREYLEGHHHHHH | soluble |
| MGSDKIHHHHHHMLHGKVLVAQGGGPTAVINQSMVGAVLESRKFRNVDLVYGAHHGVRGIVNEDFLDLTQETSHNLEMVAQTPSSGLGSTRDKPDLKYCHEIFEVLKAHGIAYFFYIGGNDSSDTVRIVSEEARKAGYPLRCIHIPKTIDNDLVLNDHTPGFPSAARFVAQAFMGVNLDNAALRGIYLAVVMGRHAGFLTAASALGKKFPEDGPHLIYIPERTFRVDSFLTDVKATYDKYGRCVVALSEGIHDEDGAPIITKLSKATEKDAHGNIQLSGTGALSDLLCEEIKGKLGIKRVRGDTFGYLQRSFIGCVSDVDQREAREVGEKAVQFAMWGDQDGSVTIQRTGFYSVDYKLLPLAAVAGKTRVMEDHFIAESGTDVTDSFRMYLRPLLGSGMPDAFRLRLNSVPRILKK | not soluble |
| GPGSMTDRLTAEDVFYELSTIRDPERPDCTLADLDVVAMNRCRVEYIESSADFQSLRGQGCNDSGKPSVVVKVILQPTVPHCSLMEFICLCVYVRLREVFSLSNNAKFDITLVDGSHVRQRELEKQVADKERLAAAMEDKALLQEVERHINCE | soluble |
| MAHHHHHHMRYFRVLHNFDAQDGVELTVKKGETVFTAESEVREGWIKVEVLHDPRRRGFVPFNYLRETTESLAREQEEGSRGIGRESGGMSTASMTLQPSAVPRETSVTFTSGALDYGDRLQNMYGVGASAPSPVSQRSRSAEQGMKRVNENSMATATKGAVMEPLLPSQKVPSSPPSGADPVPERSLLNNPSAIVEAFMKNELHFKQLIRQRQDALAQMRTTVEEAMSELAACKEKNFTLARKLRELDQSVEKERGRWKERIMEEKAYISRSMSSE | soluble |
| YMVPGLWGAPLKAVSAFAPPMKTQDFNLYTNEVHAKFDDYDLGMEYARQHNKPVMLDFTGYGCVNCRKMELAVWTDPKVSSIINNDYVLITLYVDNKTPLTEPVKIMENGTERTLRTVGDKWSYLQRVKFGANAQPFYVLIDNEGNPLNKSYAYDEDISKYINFLQTGLENYRKEK | not soluble |
| GGSVLAERAGIDPTAILRDFDRGRTSTLPDGRTLREWDIVAVDKDFEIAPGIIFKGWSYNGRIPGPTLWAREGDALRIHFTNAGAHPHTIHFHGVHRATMDGTPGIGAGSIAPGQSFTYEFDATPFGTHLYHCHQSPLAPHIAKGLYGGFIVEPKEGRPPADDEMVMVMNGYNTDGGDDNEFYSVNGLPFHFMDFPVKVKQHELVRIHLINVLEYDPINSFHIHGNFFHYYPTGTMLTPSEYTDTISQVQGQRGILELRFPYPGKFMFHAHKTEFAELGWMGFFEVSA | soluble |
| SGRVQLFEISLSHGRVVYSPGEPLAGTVRVRLGAPLPFRAIRVTCIGSCGVSNKANDTAWVVEEGYFNSSLSLADKGSLPAGEHSFPFQFLLPATAPTSFEGPFGKIVHQVRAAIHTPRFSKDHKCSLVFYILSPLNLNSIPDIEQPNVASATKKFSYKLVKTGSVVLTASTDLRGYVVGQALQLHADVENQSGKDTSPVVASLLQKVSYKAKRWIHDVRTIAEVEGAGVKAWRRAQWHEQILVPALPQSALPGCSLIHIDYYLQVSLKAPEATVTLPVFIGNIAVNHAPVSPRPGLGLPPGAPPLVVPSAPPQEEAEAEAAAGGPHFLDPVFLSTKSHSQRQPLLATLSSVPGAPEPCPQDGSPASHPLHPPLCISTGATVPYFAEGSGGPVPTTSTLILPPEYSSWGYPYEAPPSYEQSCGGVEPSLTPES | soluble |
